Results taken from the domain aggregation screens of Martell et al. (2025).

Assay: soluble fraction after stress (log2 fold change); higher = more stays soluble; pooled small domains, quantitative proteomics
Details: stress: 75 degC
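Note: 20 min heating vs room temperature control held 20 min.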

Sequence	soluble fraction (log2)
HMDFRQALNTSADSDANKVALLESIVKGKYVSSTVNLLRRVITLRRGRSIDATLAAYSHYVSIR	0.155
HMDFSVTIKGTSFPVMVSLKKMKQVRLKVFPSGEIKLSAPVGTPEKWIVEYLNDKMSWIEEKMDLFVQ	-1.26
HMDFTMSEIQTAMAALPRGYRTVVQLYLVDGYSHKEIAEMLGVDVNTSKSQLSRGRKQLQAFLAAMS	-0.152
HMDFYIVLGVDRAASVSDVKRAYRRLARKYHPDINPGDREAEAFFLRVTEAYETLIDPDRRQDYDVNG	-1.06
HMDFYPARVKWFNKSKGFGFANIFKSNDDIFLHIETLKRSGLSDLETGEAIVLTVTEGPRGKMADTILTWD	-0.531
HMDGDFGMNLDWQPSEHFPTLARQAGIPADHITAEAIAEFRSYWIGQGKAMTQYQWDHKLLTNLKATKTR	-1.19
HMDGEAQTYVEYGKWFPADLPLEAVRQLADGVPVTKELVAALNPRRSEWEEIKAGLDKIGYPNELL	-0.0206
HMDGEITLYKVVGYIKASDFDDKKNGFVIADDYITKRQAEDTMYEWKRKKTYPYLEIKEYKGKDPYK	0.255
HMDGLAEQLFNILREELESGDYKPGQKLMSESALAQKYGVSRLTVRAAIARLSALDYVETRNGEGSFVKKR	-1.78
HMDGLDFIINENGKIANINEEGELLAKGENIMLGYYKDSISTNNTINNGWLHTGDIAKIDNDGFIYL	-0.0909
HMDGMNEELYQKFFALVGNPDEGKRISQAKAAQALGYSSAVVSAYKNRTYNGNIKAFEDAVQAWLKREERR	0.17
HMDGPELYESMKAIVPDQLDRTIFLTGGAYTPRAQEFLARVPNQQMEKPFEFEALRSLLARLT	0.128
HMDGTEVTTEPPGAQVEYEGKQFGPTPARIPGLVAGKSLHITLPGYLEVKPKIKAVPKDGEPLSFTLTAI	-0.0613
HMDGVEVVTKPAGAQIEFAGKSYGPSPVHIPGLVAGSQLILRLPGFQAATVRLRTAPDKSKALEYTLQPA	-0.278
HMDGVLVYKEGMTVADMATGLGKTIAQVVMKLMQLGIMANQNQSVDRETVELVALDFGYELKD	-2.27
HMDGVSAEAVKSHIKTLIDGEGAKILSDDTLVDLLNAKGFDIARRTVAKYREAMGIGSSVQRRRQKKMG	0.00787
HMDGYLQLASKKNELITQLKTPPKPKRLFKDFEDRVYLITEYKVFVVSIFQNEFRLRPVNKDDFYRYTT	0.293
HMDGYTAVDKAVSDQYYTKENQLYFVSMGNFFSLGAKKIEGADISSFQILTTEYARDLQHLYFNGKV	-0.224
HMDHFFSKYDSIVNHTVQKKETLFGISKKYGLTINEVIKFNPGIQIDKLKRRSVLIIPLMKKN	-1.07
HMDHKSALQELLAPRGLQPSYRLVEEAGPAHARVFTSEVSVDGVARGSGTGTTIKMSEQAAAREALASLG	0.249
HMDHKSQLQEWAQSTLGETPRYVTIAETGPDHDKELTVELIIGRKSYSIAKGKSKKQAEQSAARIALGLLM	-1.99
HMDHKSSYWSVKEANLFPELLKQFGSQWSLISDKLGTKSTTMVRNYYQRNAAQLGWKSVVEEADFKRNA	-0.585
HMDHTYKHIELTGSSEKGIEEAVQNALAKASESVQNMRWLEVTDTRGHIEDGRVAHWQVTVKVGFTL	0.213
HMDHVEDRMVLEVVLKKLTEEERRIVMLHAVSGLKHREIAKALDIPLSTVLSKYKRTLKKLEAYLMEME	-1.72
HMDIADKLTKREFEIFIAIAMNKSRFDIANELGLSAKTVSNGLTVIKRKLNAVPSQFSAIAAKHGYIG	-2.68
HMDIAYFSNAELNDAFIQFLNMRQEAGKQLNGYQIQILTEKLERVADTDEDRISAVKNAIAGGWSNFYPPK	-0.607

Sequence	soluble fraction (log2)
HMDIDASEVRGIISQYINEPDGRVSYILETIQKKYRYLPEEAIRIVAQELEVPLTQLFGVATFYAAFSL	0.188
HMDIDLNTIKKITLDDIHAFLSYLTTTYHSKAATRARKASSIRVFFNYLSAKANLIEVNPAQNLETPKLD	0.165
HMDIEELLSRSTDRLSRQTEIRRLLADAQGRPNISSLARRFKVARRTVIRDLQELIRRGEVPPEIYPK	-1.1
HMDIEFSDELRTFIDEWSKKEGGLVMMLHRIQNEYGFIPRTAAEKLSLISGIPLARIYGVITFYHFFKT	-0.499
HMDIGNKIKELRTEQKMTQSDLAERLGVTKSSISSYENGSRLPSYDILLKIARIFKVSTDILLG	-1.47
HMDIGTRQRIIAAAMELFRQKGMDGMSMRELAERAGVNKGLLHYYFTTKEAIFREVFVHQVEM	-0.084
HMDIIIEEGIDESLSTDDAILDLLGRASDAFSNAQKALLEGDLGSYQKLIEQAERLVKKATELLGENN	-0.377
HMDIMNNILINRIKKILTEQNMSKADLSRLTGISNSSLSEYLNGKYEPKQDKIALIAKALHVSPAWLMGF	-1.22
HMDINNTNFSRDVDNLLQNEEFIKWRIFRTKEWEDYWENFRKENPHMEDALQEAISRFNAVK	0.264
HMDINVDILPLLKTMTDTLRKVIELDIPFLKDARVQRVNSLDELLLRADITTAEKFRKVFEAYQIEADFGK	-0.976
HMDIPDIGHNVRIEVDGHNGKTTHEGIILHPAAPNHITIKLANGYNASYKLEEIINIEILGELGDDSKI	-0.136
HMDIPITFEQLPAKAQAFVKQYFKIEEIASVWRDDDIHDQDYKVYFNDGSEIEFYANGDWEEV	-0.827
HMDIPTSAEAVRAYLASGFIKGIGEATARMLVDKFGAETLEIIKTEPMKLTKISGIGPKKAKMIHESYLEK	0.12
HMDIRLMPGTVLTREYQGIEHRVTVAQDGQYEFEGRRYPSLSMIAREITGTRWSGPLFFGVK	-1.09
HMDISEIEKRLLDFLEMPRSRKEIAEHLGIRTISYAIQTYITPLIDKKLVKMTIPESPRSHSQQYVRIN	-1.92
HMDISRMNLSQTERAVLSVLDSQPLHTEEIIASADLRAGAIHSALISLQLKGLIKQLPGNLYVK	-0.78
HMDITKPKISFEPGEMVRVVDGPFNDFSGVVEEVNYEKSKVRVAVLIFGRSTPVELQFNQIEK	-1.37
HMDITTIIADVPGPKTQIKVDIKNTSLHIFGGMNFKKEIDIGDNKEIINIKYINGTLTVKLKT	0.231
HMDIVGAINKIESMKQDRYLAMHPYSITHSADGYYRTYLPADDGKRKQIKKKSKSDLEKVVIDYWTKRS	-0.242
HMDIVKVYTTARAGETLASVAKRTGVDVARLAQWNDIPLKRAKQKLKTGKALALWVQREHASAYSNAPP	-1.78
HMDIVQLSEKINVMKMEIPAQAIGKTVLEVNFRARFDLNIIAIENGGKLVEVIKPDYVFREGDILFLSGS	-3.76
HMDIYENIDKELSKQGKSRRKLAIAAGIPPSTFQSMMERKRGLSVENLRKIAEVLNLKWYDLL	-0.985
HMDIYKKFIIPATYFGSRLDHVLSELLPELSRSKIQNMIKQNLVMINGNHAAQKQKVVGDEEIIIKDI	-0.483
HMDKAALGQKLRQARLDKGYTQQSLSEKADIGEVYLSEIERGLKMPSMNLFIKLITALDISADYILR	-2.94
HMDKDTFGEFENVKLTEEEYNKLVEKLGENNTKLMIEELSTGIASKGYKYKSHYATILSWSRRRVTKLQER	0.0858
HMDKEIKILKEKRLDDVQQAIRELSPQKRRVVEMKLYHNSTNQEVADKLAISVNTVKSLYTSALHDLRRIL	-0.953

Sequence	soluble fraction (log2)
HMDKESQTMFRLLTGVSGVGPKVGLAILSVLSPDRVVLAISAGDHKAFTAASGVGPKLGQRIVLELKDKVG	-3.07
HMDKEVLYVTVNDKKVKLDGKNHIFIDIFNYIDFDIKKPNGSIVLKLNGKNAGYMDEIKDGDKIEIYWDK	-0.535
HMDKEVMEAVLRILYDDDFNPDQRDAILYFFVQELDQRTISEITGAKIGTVKKRIHDGLKKLRQKLAKEDL	-2.04
HMDKGEQILQQALDKLPPKQRQVFEMRYFDEMPYREIATITETSEGALKASYHHAVKKIQQYISHL	-0.604
HMDKGQRGWINLVSVPTARVIIDGYDTGHETPLYGYEVERGKRKVTLISLDGTYERTYEIRIEPGTTTRVR	-0.779
HMDKIEVVEVDMSKPYEDMTVTELQNVILDKLASNGPVTNQMKKDVSENIYHDSLVNWAKSF	-0.0122
HMDKIYVYTTRGQVIELPRGSTAIDFAYKIQTDIGNMIIAAIVNDKLVDANYVLHNKDRVKIVTS	-2.57
HMDKLNKELVSRMMDDAAWKELSKDFPWTEQLLEKYMNYVDWKEISRNYNVVWTKSLLEKFKHRLDWHE	-2.32
HMDKMIFFKNKENNDDNQLVKIGALLIHAAKIDEDFSQEEENIIKQTLINFGAGNKNINEIIEKAKKME	0.0233
HMDKMVAVPNVRGIEASEAEATLIAQGLFVEVEKSDSEDANVAYGEVYAQTPKAGNRVEEGTTITIKVRTE	-0.0615
HMDKNNLHSVLQDVPGIGPKRMKELMRAFGSVEGMKKAGLEELAAVKGMNHKAAEALIQFFR	0.163
HMDKQGGWLTMAEAAEKLGVTHHVIRRLIKEKILPAEQVMRHAPHQIRIVDLESDAVAEALRHR	-0.356
HMDKVVGSAGDVTSRITANSGEVKIDGQIWQARSYDETIAIEAGEKIEVFDLDGITLIVYPI	-0.833
HMDLAENWKDDADITLAEYNAIRSRYKPGKLHRDTEFMIARDMLIRPETVLAIAHSRFSNVHTHPV	-0.787
HMDLDEELDFLSDADESATKLDLARAYIDMGDKDGARDILAEVLEEGRSEQKREAQALLDSI	0.249
HMDLDPVEKLHLLSQLYVGQLKGSFVVKEKNQKTTIIGEVRELSHQTLSIRTNEGYRLIEVADILEIRLWE	-0.216
HMDLDYSGIMNVLNQKYHITFYNNKKIQNLMPKLMIIMGYNSIINEIGHSKSLKALINSFEEKLKSYILT	-3.19
HMDLEGLSNKELVTLRGQIQDDLNKWATEVGIIDPKNRPDDYNRALQSLEDAKRQRSAIDAKL	0.0844
HMDLEIENYDLREILNLFKLDYNFDNVDLKRAQKIALKTHPDKSNLPKEYFMFFMKAFQIVQQIYYYRY	-0.441
HMDLFREERRQAILDWLATAGRVSVAELSASFGVSEVTVRADLQALADRRLVVRTHGGAMMAG	-2.1
HMDLHSQVFESYERKIREVLREGPLTFEEILHAFALKRHETVAQVITYLMDEGKMSDSGDGKLIYSG	-0.86
HMDLIISDIRMPEMRGDDFLEWIKANELFKHIPVIMLSSEDSTTERIRLLEIGAEDYIVKPFNPMELKIR	-0.495
HMDLLIFSPSLGQHVRDLKRVIDRLHQHGIPVRWQKAKLLREEIEYIGWTWKSGGLIDPTNV	-0.672
HMDLMSTNEKLLYTMRYLISKSLDGAITEEEIRRLDRLIIENSQARAYYVEYLQIHTHLRKLMQQNPELK	-2.39
HMDLRIIKTKKAIKTAFLNLLKENKYHNITISAISETALINRKTFYAHYETKDELYADVIEDALRVLSP	0.114
